Where a chain is given by its changes, count along the chain named.
T1: human interleukin-2 receptor α-chain (IL-2Rα; CD25), recombinant protein (human, UniProt P01589 22-240, limits assumed)
T1 construct: also called huIL2R-a; hIL-2RA
T1 sequence: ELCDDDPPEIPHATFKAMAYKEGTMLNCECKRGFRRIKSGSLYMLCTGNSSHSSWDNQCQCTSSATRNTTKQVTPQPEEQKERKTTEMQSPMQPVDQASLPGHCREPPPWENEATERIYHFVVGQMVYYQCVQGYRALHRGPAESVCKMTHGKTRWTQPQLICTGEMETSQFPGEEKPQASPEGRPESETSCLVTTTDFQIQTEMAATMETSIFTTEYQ

T2: cynomolgus monkey IL-2Rα/CD25 subunit (cynomolgus monkey, UniProt H6WS54 22-213)
T2 construct: also called Cyno IL-2R subunit
T2 sequence: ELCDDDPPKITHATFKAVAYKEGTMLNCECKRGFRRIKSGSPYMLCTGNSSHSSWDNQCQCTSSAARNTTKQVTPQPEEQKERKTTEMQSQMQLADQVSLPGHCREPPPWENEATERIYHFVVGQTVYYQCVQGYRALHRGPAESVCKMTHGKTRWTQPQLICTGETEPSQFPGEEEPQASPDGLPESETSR

B1: 13-MP05E12 VHH-hFc, monospecific bivalent (Fc fusion)
chain: QVQLQESGGGLVQAGDSLRLSCAASGFNFGWHAMGWFRQAPGKEREFVATITWTGRDTYYADSVRGRFTISKDNAKDTLFLQMNSLRPDDTGVYYCAKARERATWAYSEDDCDYWGQGTQVTVSS
notes: IgG1 Fc LALA-PG; not shown: human IgG1 CH2 and CH3 domains (Fc)
B2: 2-MP01A02 VHH-hFc, monospecific bivalent (Fc fusion)
chain: QVQLVESGGGLVQPGGSLRLSCATSGFTFRNNFMSWVRQAPGKGLEWVSTISYGGESTTYAESVKGRFTISRDNAKNTLYLQMNNLKPEDTAVYYCAKATSYDSIRSGSRGQGTQVTVSS
notes: IgG1 Fc LALA-PG; also called anti-IL-2Rα Ab 2; not shown: human IgG1 CH2 and CH3 domains (Fc)
B3: 8-MP01C12 VHH-hFc, monospecific bivalent (Fc fusion)
chain: B2 chain with R30S, W47F, S63A, V93I, D103T, S107G, G108A, S109P
notes: IgG1 Fc LALA-PG; also called anti-IL-2Rα Ab 8; anti-IL-2Rα VHH 8; not shown: human IgG1 CH2 and CH3 domains (Fc)
B4: 6-MP01G05 VHH-hFc, monospecific bivalent (Fc fusion)
chain: QVQLQESGGGLVQAGGSLRLSCAASGRTFSSYAMGWFRQAPGKEREFVAVISWNVDNTEYTDSVKGRFTISRDNDKNMVYLQMNSLKPEDTAVYYCAADSIPLSSDMSPTATEYGYWGQGTQVTVSS
notes: as for B1
B5: 12-MP05B12 VHH-hFc, monospecific bivalent (Fc fusion)
chain: QVQLVESGGGLVQAGGSLRLSCAASGFTFDGYAIGWFRQAPGKEREGVSYITGSDGSTYYADSVKGRFTISSNNAKNTVYLHMNSLKPDDAAVYYCAIDRLGSRGAYVPIWWRSSDMDLWGKGTLVTVSS
notes: as for B1
B6: 9-MP05G01 VHH-hFc, monospecific bivalent (Fc fusion)
chain: EVQLVESGGGLVQAGGSLRLSCAASGGSIYTYNMGWFRQAPGKEREFVAGTLWSGGDSVYADFAKGRFTLSRENAKNTLYLQMNSLKPEDTATYYCAIDPLSLTSDWRVDELSSWGKGTLVTVSS
notes: as for B1
B7: 1-MP01H01 VHH-hFc, monospecific bivalent (Fc fusion)
chain: EVQLVESGGGLVQAGGSLRLSCAASGRTFRTHNMGWFRRAPGKEREFVAAISWNVDNTLYADSVKGRFTISRDNGRNMVYLQMNSLKPEDTAVYYCAADNIPLSSDVAATATEYDYWGQGTQVTVSS
notes: as for B1
B8: 4-MP01F04 VHH-hFc, monospecific bivalent (Fc fusion)
chain: B7 chain with E1Q, R27G, H32R, I51V, T58K, V107M, A108R, A109P
notes: as for B1
B9: 92-MP05C07 VHH-hFc, monospecific bivalent (Fc fusion)
chain: QVQLVESGGGSVQAGGSLRLSCEASGRTLFSSYGMGWFRQAPGKEREFVGAISRFGTYTSYADPVKDRFTISRDNAKSTVYLQMNNTKPEDTAVYYCAAYTYSGSFYSTVKTHHDEYRYWGQGTQVTVSS
notes: as for B1
B10: 5-MP01F05 VHH-hFc, monospecific bivalent (Fc fusion)
chain: EVQLVESGGGLVQAGGSLRLSCAASIRAFTTWSMAWFRQAPGKEREYVARINVSGSVTYYADFVKGRFTISRDNAKKTMYLEMNNLKPEDTALYYCAADRTGVGTNDYNYWGQGTQVTVSS
notes: as for B1
B11: 3-MP01E03 VHH-hFc, monospecific bivalent (Fc fusion)
chain: QVQLVESGGGLVQAGGSLRLSCTASGRTLSSYSMAWFRQAADKGREFVTAISSSGVVTHVLDSVKGRFTISRDNAKNTVYLQMNSLQPEDTALYFCAGTASSYSTYEANYNYWGQGTLVTVSS
notes: as for B1
B12: 11-MP05H04 VHH-hFc, monospecific bivalent (Fc fusion)
chain: QLQLVESGGGLVQAGGSLRLSCAASGLTFEGYAIGWFRQAPGKEREGVSYITGSDGTTYYINSVKGRFTISSDNAKSTVYLQMNTLKPEDTAVYYCAVDRLGSQGRYASAWWRSGDMDLWGKGTQVTVSS
notes: as for B1
B13: 7-MP01G08 VHH-hFc, monospecific bivalent (Fc fusion)
chain: EVQLVESGGGLVQAGGSLRLSCAASGRAFSMYNMGWFRQAPGKEREFVAATGWSGANTPYADSVKGRFTISRDNTQNTVYLQMNSLKPEDTATYYCAADSIRLRSDVTRIPLEYDYWGQGTQVTVSS
notes: IgG1 Fc LALA-PG; also called 07-MP01G08; not shown: human IgG1 CH2 and CH3 domains (Fc)
B14: 10-MP05F03 VHH-hFc, monospecific bivalent (Fc fusion)
chain: QVQLVESGGGLVQAGGSLRLSCAASGIPFDNYAMGWFRQAPGKEREFVAARDLEGIITRYGDSVKGRFTISRGNAKNTVFLQMNSLKPEDTAVYYCAARDGGVVAGSRSSAQYNYWGQGTQVTVSS
notes: IgG1 Fc LALA-PG; also called anti-IL-2Rα Ab 10; anti-IL-2Rα VHH 10; not shown: human IgG1 CH2 and CH3 domains (Fc)
B15: 2-MP01A02 VHH (periplasmic extract) (VHH)
VHH: B2 chain
notes: soluble VHH in periplasmic extract
B16: 8-MP01C12 VHH (periplasmic extract) (VHH)
VHH: B2 chain with R30S, W47F, S63A, V93I, D103T, S107G, G108A, S109P
notes: as for B15
B17: 6-MP01G05 VHH (periplasmic extract) (VHH)
VHH: B4 chain
notes: as for B15
B18: 1-MP01H01 VHH (periplasmic extract) (VHH)
VHH: B7 chain
notes: as for B15
B19: 5-MP01F05 VHH (periplasmic extract) (VHH)
VHH: B10 chain
notes: as for B15
B20: 3-MP01E03 VHH (periplasmic extract) (VHH)
VHH: B11 chain
notes: as for B15
B21: 10-MP05F03 VHH (periplasmic extract) (VHH)
VHH: B14 chain
notes: as for B15

target: T1, human interleukin-2 receptor α-chain …; assay: ELISA, bivalent VHH-hFc
Method: (§1) Monospecific monovalent and bivalent IL-2Rα-, IL-2Rβ- and IL-2Rγ-specific antibodies that were selected on human IL-2R subunits, were evaluated for their cross-reactivity in an ELISA. Human and cynomolgus monkey receptor subunits (Acrobiosystems, KactusBiosystems) were coated at 1 μg/mL in PBS (pH 7.4) in a Maxisorp plate (Nunc) and incubated overnight at 4° C. The plates were further washed with PBS-Tween pH 7.4 and incubated with 1% cascin/PBS-Tween blocking solution for 1 hour shaking at 400 rpm. Subsequently, the plate was washed three times with PBS-Tween pH 7.4, after which the test antibodies diluted in 0.1% casein/PBS-Tween were added to the plate and incubated for 1 hour. The plate was again washed three times, after which goat anti-human IgG Fc (HRP) detection antibody (abcam) was added to the plate and incubated for 30 min. The colouring reaction was performed with TMB (Sigma-Aldrich) and stopped with 0.5N H₂SO₄.
(§2) Absorbance was measured at 450 nm with the reference wavelength of 620 nm using spectrophotometer. Final analysis and graphic output were performed with GraphPad Prism version 8 (GraphPad Software). The dose-response binding curves were fit to a nonlinear regression model (log (agonist) vs. response with a variable slope (four parameters)).

Row | Binder | EC50 [nM]
1 | B1 | 0.049
2 | B2 | 0.038
3 | B3 | 0.051
4 | B4 | 0.056
5 | B5 | 0.074
6 | B6 | 0.065
7 | B7 | 0.052
8 | B8 | 0.053
9 | B9 | 0.047
10 | B10 | 0.06
11 | B11 | 0.057
12 | B12 | 0.093
13 | B13 | 0.072
14 | B14 | 0.061

target: T2, cynomolgus monkey IL-2Rα/CD25 subunit; assay: ELISA, bivalent VHH-hFc
Method: as §1, §2

Row | Binder | EC50 [nM] | binding result
15 | B1 | 0.051 | 
16 | B2 | 0.043 | 
17 | B3 | 0.054 | 
18 | B4 | 0.05 | 
19 | B5 | 0.084 | 
20 | B6 | 0.062 | 
21 | B7 | 0.061 | 
22 | B8 | 0.056 | 
23 | B9 |  | no binding
24 | B10 | 0.095 | 
25 | B11 | 0.106 | 
26 | B12 | 0.11 | 
27 | B13 | 0.067 | 
28 | B14 | 0.06 | 

target: T1, human interleukin-2 receptor α-chain …; assay: P.E. binding ELISA
Procedure, shortened: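 Direct-coat ELISA: receptor protein o/n 4° C → 4% Marvel/PBS block 1 h → P.E. 1:5 in 1% Marvel/PBS, 1 h → OD450 vs neg. controls.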

Row | Binder | OD450 nm [OD450 nm]
29 | B15 | 2.62
30 | B16 | 2.53
31 | B17 | 1.79
32 | B18 | 1.71
33 | B19 | 2.62
34 | B20 | 2.54
35 | B21 | 2.46

target: T2, cynomolgus monkey IL-2Rα/CD25 subunit; assay: ELISA, bivalent; EC50 cyno vs human subunit
Method: as §1, §2

Row | Binder | Fold change [fold]
36 | B1 | 1
37 | B2 | 1.1
38 | B3 | 1.1
39 | B4 | 0.9
40 | B5 | 1.1
41 | B6 | 1
42 | B7 | 1.2
43 | B8 | 1.1
44 | B10 | 1.6
45 | B11 | 1.9
46 | B12 | 1.2
47 | B13 | 0.9
48 | B14 | 1

target: T1, human interleukin-2 receptor α-chain …; assay: P.E. off-rate SPR
Procedure, shortened: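 Recombinant receptor was amine-coupled in acetate buffer onto a CM5 carboxymethyl dextran chip at approximately 2500 RU. VHH-containing periplasmic extracts were injected at 30 uL/min, and dissociation was followed for 120s to give off-rates.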

Row | Binder | koff [s⁻¹]
49 | B15 | 0.00153
50 | B16 | 0.000383
51 | B17 | 0.0206
52 | B18 | 0.0229
53 | B19 | 0.00042
54 | B20 | 0.000799
55 | B21 | 0.000639
